Assay results reported in patent publication US20070054846A1, “Bcl-w structure and uses therefor” (priority 2002, published 2007).

Experiments:
Format in all cases: binding
full-length Bcl-xL [1] = target: T1, full-length Bcl-xL (Homo sapiens, UniProt Q07817); test: Co-immunoprecipitation from cell extracts; settings: FLAG-tagged full-length Bcl-xL
T1 construct: FLAG-tagged full-length Bcl-xL or a C-terminally truncated mutant (ΔC24); expressed in transfected cells
Description: (§1) Bcl-xL and Bcl-2 also contain hydrophobic residues at their C-termini, similar to those found in Bcl-w (FIG. 1C), yet the low level of sequence identity following α8 and the absence of 3D-structural information, makes prediction of their conformation difficult. Since BCl-xL, like Bcl-w, is only partially membrane-bound in healthy cells (Hsu et al., 1997), we compared the ability of FLAG-tagged full-length Bcl-xL or a C-terminally truncated mutant (ΔC24) to bind to BimL or the […]L94A B3 mutant.
Cell culture, stable transfections into FDC-P1, transient transfections into 293T human embryonic kidney cells, metabolic labelling with ^35S-methionine/cysteine (NEN) and co-immunoprecipitation have been previously described (O'Connor et al., 1998, Moriishi et al., 1999; Huang et al., 1998; Wilson-Annan et al., 2003). Briefly, mammalian pEF-based expression vectors for Bcl-w, BCl-xL, Bim, Bmf, Bad and Bik (O'Connor et al., 1998, Huang et al., 1998; Moriishi et al., 1999; Wilson-Annan et al., 2003) were transiently transfected using liposome mediated transfection (Lipofectamine™; Invitrogen). […] The immunoprecipitates were resolved by SDS-PAGE (Novex), transferred onto nitrocellulose membranes (APB) and the proteins detected by fluorography (Amplify; APB).

full-length Bcl-xL [2] = target: T1, full-length Bcl-xL; test: GST pull-down
Description: as §1
Direct interactions between Bcl-w and BimL were monitored using GST pull-down experiments. These were performed in 100 μl of PBS (phosphate buffered saline pH 7.3) containing 2 mM DTT. Typically excess soluble proteins were added to equivalent amounts of resin bound proteins. After incubation at room temperature for 30 minutes the resin was pelleted and then washed twice with 200 μl of PBS containing 0.2% Tween 20. After removal of the second wash 10 μl of SDS-PAGE sample buffer was added to each sample and the samples were boiled then loaded onto 16% polyacrylamide gels that were electrophoresed and stained with Coomassie Blue R250. The staining intensity of the bound soluble protein indicated the strength of the interaction between the two proteins.

Bcl-xLΔC24 = target: T2, Bcl-xLΔC24 (Homo sapiens, UniProt Q07817); test: Co-immunoprecipitation / GST pull-down; settings: C-terminally truncated Bcl-xL (ΔC24)
T2 construct: expressed in transfected cells
Description: as §1
Direct interactions between Bcl-w and BimL were monitored using GST pull-down experiments. These were performed in 100 μl of PBS (phosphate buffered saline pH 7.3) containing 2 mM DTT. Typically excess soluble proteins were added to equivalent amounts of resin bound proteins. After incubation at room temperature for 30 minutes the resin was pelleted and then washed twice with 200 μl of PBS containing 0.2% Tween 20. […]
Cell culture, stable transfections into FDC-P1, transient transfections into 293T human embryonic kidney cells, metabolic labelling with ^35S-methionine/cysteine (NEN) and co-immunoprecipitation have been previously described (O'Connor et al., 1998, Moriishi et al., 1999; Huang et al., 1998; Wilson-Annan et al., 2003). […] The immunoprecipitates were resolved by SDS-PAGE (Novex), transferred onto nitrocellulose membranes (APB) and the proteins detected by fluorography (Amplify; APB).

T1 sequence (Q07817 whole entry, species assumed, the tested form may be a part): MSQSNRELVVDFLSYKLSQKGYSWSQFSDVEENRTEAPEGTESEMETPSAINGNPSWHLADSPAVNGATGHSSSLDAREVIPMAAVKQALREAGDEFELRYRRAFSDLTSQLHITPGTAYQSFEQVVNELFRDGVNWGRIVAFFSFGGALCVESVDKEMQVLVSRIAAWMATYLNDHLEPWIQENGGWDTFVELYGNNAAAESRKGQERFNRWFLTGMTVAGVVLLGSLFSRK
T2 sequence (Q07817 1-209 limits assumed, stated change not applied): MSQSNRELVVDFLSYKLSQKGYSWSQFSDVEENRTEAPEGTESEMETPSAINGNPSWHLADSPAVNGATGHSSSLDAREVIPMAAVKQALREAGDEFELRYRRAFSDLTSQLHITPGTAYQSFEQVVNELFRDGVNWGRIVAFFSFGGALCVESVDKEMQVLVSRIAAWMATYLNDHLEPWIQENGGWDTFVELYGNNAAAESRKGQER

association in cell extracts (full-length Bcl-xL [1]): associates only with wild-type BimL
association in GST pull-down (full-length Bcl-xL [2]): more tightly with wild-type BimL
B1: BimL: Bim isoform BimL, BH3-only protein (protein)
chain: MAKQPSDVSSECDREGGQLQPAERPPQLRPGAPTSLQTEPQDRSPAPMSCDKSTQTPSPPCQAFNHYLSAMASIRQSQEEPEDLRPEIRIAQELRRIGDEFNETYTRRVFANDYREAEDHPQMVILQLLRFIFRLVWRRH
modifications: left off: small tags and cut ends
notes: Bim isoform BimL, BH3-only protein
binding (Bcl-xLΔC24): bound wild-type BimL and the L94A mutant equally
